Reference: publication PMC2896269 (The Journal of neuroscience : the official journal of the …, 2010)

Biological target: HA-neuroligin-1(+B) (UniProt Q62765 46-843)
Assay: immunostaining of cells or tissue

Chain of HA-neuroligin-1(+B) (Q62765 46-843): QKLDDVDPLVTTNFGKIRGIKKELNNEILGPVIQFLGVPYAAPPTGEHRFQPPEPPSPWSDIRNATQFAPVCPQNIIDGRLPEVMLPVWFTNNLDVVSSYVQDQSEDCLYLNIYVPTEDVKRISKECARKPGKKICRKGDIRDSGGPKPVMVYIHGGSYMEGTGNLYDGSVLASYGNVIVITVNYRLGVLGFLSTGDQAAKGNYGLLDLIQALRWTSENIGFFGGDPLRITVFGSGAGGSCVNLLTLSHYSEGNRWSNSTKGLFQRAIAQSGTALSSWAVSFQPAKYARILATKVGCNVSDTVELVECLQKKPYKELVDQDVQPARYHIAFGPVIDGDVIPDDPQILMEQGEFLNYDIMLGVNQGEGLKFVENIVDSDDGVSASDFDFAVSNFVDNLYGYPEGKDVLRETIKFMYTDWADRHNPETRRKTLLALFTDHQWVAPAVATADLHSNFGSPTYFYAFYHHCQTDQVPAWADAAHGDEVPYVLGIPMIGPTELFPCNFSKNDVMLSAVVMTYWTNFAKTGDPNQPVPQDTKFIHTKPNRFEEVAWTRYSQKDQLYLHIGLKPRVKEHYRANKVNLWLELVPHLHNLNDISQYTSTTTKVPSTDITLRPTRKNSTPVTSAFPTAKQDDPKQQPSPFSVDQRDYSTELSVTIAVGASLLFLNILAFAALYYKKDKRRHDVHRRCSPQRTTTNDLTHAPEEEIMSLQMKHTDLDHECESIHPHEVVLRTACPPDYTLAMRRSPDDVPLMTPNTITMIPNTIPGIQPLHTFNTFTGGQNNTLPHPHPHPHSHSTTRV

B1: Nrx1β(+S4)-Fc (Fc fusion)
chain: not shown
Which Kd does the source give for B1 here?
Its Kd is 26.9 nM.
